From patent publication US20120208867

Biological target: T1, His-tagged HMGB1 (UniProt P09429)
T1 sequence: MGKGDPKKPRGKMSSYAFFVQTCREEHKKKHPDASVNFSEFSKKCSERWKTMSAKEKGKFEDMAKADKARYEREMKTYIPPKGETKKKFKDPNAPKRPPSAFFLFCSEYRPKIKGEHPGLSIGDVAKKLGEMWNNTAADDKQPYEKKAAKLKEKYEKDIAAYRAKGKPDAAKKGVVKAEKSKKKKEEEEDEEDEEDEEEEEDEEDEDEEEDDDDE
Assay: SPR
Settings: comparative pool; no signal increase in FIG. 1; unit M inferred

## GGGACGCUCACGUACGCUCANNNNNNNNNNNNNNNNNNNNNNNNNNNNNNNNNNNNNNNNUCAGUGCCUGGACGUGCAGU [40N random RNA pool]
  Kd: 1.04 µM
